{
  "source": "patent US5441884",
  "system": "T1, Tn5401 TnpA transposase (Bacillus thuringiensis var. morrisoni EG2158)",
  "T1 sequence": "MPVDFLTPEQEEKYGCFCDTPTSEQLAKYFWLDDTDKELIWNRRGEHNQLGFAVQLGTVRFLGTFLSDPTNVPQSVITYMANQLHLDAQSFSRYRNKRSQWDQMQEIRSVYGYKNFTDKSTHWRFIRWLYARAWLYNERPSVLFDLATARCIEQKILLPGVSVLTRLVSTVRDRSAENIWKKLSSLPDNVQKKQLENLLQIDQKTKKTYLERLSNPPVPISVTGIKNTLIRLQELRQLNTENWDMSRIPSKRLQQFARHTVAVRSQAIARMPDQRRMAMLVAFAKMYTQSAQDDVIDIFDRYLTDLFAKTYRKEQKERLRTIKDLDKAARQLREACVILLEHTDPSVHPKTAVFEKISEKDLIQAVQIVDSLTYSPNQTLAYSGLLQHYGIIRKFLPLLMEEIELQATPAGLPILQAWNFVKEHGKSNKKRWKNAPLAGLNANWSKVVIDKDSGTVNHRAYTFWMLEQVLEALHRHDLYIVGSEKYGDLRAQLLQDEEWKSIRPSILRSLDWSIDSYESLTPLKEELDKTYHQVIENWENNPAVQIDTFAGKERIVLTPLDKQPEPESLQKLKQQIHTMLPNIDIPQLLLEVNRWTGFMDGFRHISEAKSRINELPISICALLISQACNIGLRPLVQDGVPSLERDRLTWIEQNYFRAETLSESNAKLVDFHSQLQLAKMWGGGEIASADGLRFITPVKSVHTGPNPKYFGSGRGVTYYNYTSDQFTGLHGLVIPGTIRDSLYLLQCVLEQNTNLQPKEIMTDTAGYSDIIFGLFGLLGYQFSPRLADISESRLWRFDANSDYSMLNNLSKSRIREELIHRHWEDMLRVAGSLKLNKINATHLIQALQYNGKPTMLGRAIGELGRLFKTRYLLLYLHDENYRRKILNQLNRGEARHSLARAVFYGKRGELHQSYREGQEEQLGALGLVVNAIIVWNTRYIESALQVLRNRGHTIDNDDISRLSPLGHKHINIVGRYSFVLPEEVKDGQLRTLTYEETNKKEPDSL",
  "assay": "cell_activity",
  "settings": "pEG922 in plasmid-free B.t. EG7566; 10^-1 to 10^-2 in a plasmid-containing strain; functional transposition, binding not measured directly",
  "data": [
    {"substance": "Tn5401 transposon with 53 bp terminal inverted repeats", "values": [
      {"measurement": "activity (transposition frequency)", "result": 0.0001}
    ]}
  ]
}
